Assay results taken from patent US20100256217A1 (University of Pennsylvania, published 2010).

Target: T1, human CK2β subunit, cloned from HeLa cell cDNA (pcCK2β) (human, UniProt P67870 1-215)
T1 construct: 35S-labeled in vitro translated protein in the in vitro assay; Expressed in transfected 293T cells in the in vivo assay; also called CKβ; CK2 beta
Experiment: in vitro binding assay, 35S-labeled in vitro translated proteins, co-immunoprecipitation with anti-His or anti-CK2β, autoradiography

T1 sequence (P67870 whole entry): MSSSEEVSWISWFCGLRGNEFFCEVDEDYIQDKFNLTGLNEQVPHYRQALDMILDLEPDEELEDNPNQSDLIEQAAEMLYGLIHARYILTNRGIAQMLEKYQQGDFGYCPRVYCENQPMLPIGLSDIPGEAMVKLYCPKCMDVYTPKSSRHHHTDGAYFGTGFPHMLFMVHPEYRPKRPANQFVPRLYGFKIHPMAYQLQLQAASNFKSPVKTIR

B1: West Nile virus capsid protein with a C-terminal polyhistidine tag, encoded by pcWNV C-His (other)
chain: MSKKPGGPGKSRAVNMLKRGMPRVLSLIGLKRAMLSLIDGKGPIRFVLALLAFFRFTAIAPTRAVLDRWRGVNKQTAMKHLLSFKKELGTLTSAINRRSSKQKKRGGKTGIAVMIGLIASVGA
notes: The capsid is its N-terminal part; also called WNV Cp; protein C; not shown: C-terminal polyhistidine tag from the pcDNA3.1 V5/HisA vector
binding result: no binding
